Assay results reported in IntAct's records for PubMed 35512704.

B1: Mothers against decapentaplegic homolog 4 (Homo sapiens), Q13485 (parent)
chain: MDNMSITNTPTSNDACLSIVHSLMCHRQGGESETFAKRAIESLVKKLKEKKDELDSLITAITTNGAHPSKCVTIQRTLDGRLQVAGRKGFPHVIYARLWRWPDLHKNELKHVKYCQYAFDLKCDSVCVNPYHYERVVSPGIDLSGLTLQSNAPSSMMVKDEYVHDFEGQPSLSTEGHSIQTIQHPPSNRASTETYSTPALLAPSESNATSTANFPNIPVASTSQPASILGGSHSEGLLQIASGPQPGQQQNGFTGQPATYHHNSTTTWTGSRTAPYTPNLPHHQNGHLQHHPPMPPHPGHYWPVHNELAFQPPISNHPAPEYWCSIAYFEMDVQVGETFKVPSSCPIVTVDGYVDPSGGDRFCLGQLSNVHRTEAIERARLHIGKGVQLECKGEGDVWVRCLSDHAVFVQSYYLDREAGRAPGDAVHKIYPSAYIKVFDLRQCHRQMQQQAATAQAAAAAQAAAVAGNIPGPGSVGGIAPAISLSAAAGIGVDDLRRLCILRMSFVKGWGPDYPRQSIKETPCWIEIHLHRALQLLDEVLHTMPIADPQPLD
partner: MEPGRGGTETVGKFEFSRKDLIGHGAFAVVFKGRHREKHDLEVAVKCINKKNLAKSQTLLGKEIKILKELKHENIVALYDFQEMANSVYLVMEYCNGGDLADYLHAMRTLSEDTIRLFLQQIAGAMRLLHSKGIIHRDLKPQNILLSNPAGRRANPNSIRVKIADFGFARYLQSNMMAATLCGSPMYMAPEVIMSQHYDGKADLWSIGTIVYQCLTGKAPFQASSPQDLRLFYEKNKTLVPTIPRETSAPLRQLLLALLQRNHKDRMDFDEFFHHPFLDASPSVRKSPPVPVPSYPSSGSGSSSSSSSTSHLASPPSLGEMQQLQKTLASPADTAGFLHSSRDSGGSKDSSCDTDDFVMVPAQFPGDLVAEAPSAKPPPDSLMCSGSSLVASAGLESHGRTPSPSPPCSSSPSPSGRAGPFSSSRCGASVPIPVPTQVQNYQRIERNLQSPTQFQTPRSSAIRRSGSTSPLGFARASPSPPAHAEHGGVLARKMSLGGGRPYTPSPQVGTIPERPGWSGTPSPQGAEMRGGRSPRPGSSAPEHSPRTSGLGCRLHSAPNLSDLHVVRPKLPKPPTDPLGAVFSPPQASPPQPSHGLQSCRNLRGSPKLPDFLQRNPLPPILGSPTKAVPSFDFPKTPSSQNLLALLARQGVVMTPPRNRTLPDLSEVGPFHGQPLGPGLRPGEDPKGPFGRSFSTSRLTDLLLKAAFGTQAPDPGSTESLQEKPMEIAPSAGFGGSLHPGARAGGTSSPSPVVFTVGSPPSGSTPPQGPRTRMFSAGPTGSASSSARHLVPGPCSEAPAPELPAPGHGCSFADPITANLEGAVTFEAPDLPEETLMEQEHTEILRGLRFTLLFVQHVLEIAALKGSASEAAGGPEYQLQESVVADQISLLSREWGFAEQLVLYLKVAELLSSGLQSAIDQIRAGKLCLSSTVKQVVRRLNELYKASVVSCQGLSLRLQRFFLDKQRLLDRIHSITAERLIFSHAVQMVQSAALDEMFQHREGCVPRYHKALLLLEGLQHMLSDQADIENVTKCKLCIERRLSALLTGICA
B2: Mothers against decapentaplegic homolog 4 (Homo sapiens), Q13485 (parent)
chain: B1 chain
partner: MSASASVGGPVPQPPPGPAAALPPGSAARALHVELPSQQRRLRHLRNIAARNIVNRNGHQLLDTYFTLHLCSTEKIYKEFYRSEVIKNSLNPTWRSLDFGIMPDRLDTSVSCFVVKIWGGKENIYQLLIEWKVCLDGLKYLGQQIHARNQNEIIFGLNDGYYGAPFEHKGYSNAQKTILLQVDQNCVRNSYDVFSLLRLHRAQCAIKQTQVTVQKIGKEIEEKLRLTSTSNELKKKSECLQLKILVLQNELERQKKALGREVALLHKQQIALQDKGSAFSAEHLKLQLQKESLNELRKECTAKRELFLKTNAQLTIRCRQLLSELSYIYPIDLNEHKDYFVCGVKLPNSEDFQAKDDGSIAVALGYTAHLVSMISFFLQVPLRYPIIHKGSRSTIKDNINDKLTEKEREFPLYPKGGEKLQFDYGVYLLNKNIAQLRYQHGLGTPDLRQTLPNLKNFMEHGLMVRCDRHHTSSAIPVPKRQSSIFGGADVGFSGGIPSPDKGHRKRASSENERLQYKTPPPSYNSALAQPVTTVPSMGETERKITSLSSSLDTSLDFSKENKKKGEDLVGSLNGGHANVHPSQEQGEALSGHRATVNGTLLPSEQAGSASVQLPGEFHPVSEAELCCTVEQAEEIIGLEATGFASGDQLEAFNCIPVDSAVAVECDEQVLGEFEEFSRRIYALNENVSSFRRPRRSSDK
B3: Mothers against decapentaplegic homolog 4 (Homo sapiens), Q13485 (parent)
chain: B1 chain
partner: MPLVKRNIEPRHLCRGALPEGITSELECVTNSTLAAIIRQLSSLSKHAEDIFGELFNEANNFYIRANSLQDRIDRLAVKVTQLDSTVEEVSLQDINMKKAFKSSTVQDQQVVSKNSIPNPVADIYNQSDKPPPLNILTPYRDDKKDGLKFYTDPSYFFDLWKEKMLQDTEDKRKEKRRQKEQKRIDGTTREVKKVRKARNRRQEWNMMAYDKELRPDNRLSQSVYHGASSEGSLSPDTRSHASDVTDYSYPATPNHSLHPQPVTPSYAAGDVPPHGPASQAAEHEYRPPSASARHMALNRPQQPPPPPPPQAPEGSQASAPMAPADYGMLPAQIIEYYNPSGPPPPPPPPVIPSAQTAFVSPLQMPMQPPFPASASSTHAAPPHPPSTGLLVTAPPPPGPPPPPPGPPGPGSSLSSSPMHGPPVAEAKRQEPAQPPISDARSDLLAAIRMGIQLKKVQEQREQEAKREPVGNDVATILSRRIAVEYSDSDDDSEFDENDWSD
B4: Mothers against decapentaplegic homolog 4 (Homo sapiens), Q13485 (parent)
chain: B1 chain
partner: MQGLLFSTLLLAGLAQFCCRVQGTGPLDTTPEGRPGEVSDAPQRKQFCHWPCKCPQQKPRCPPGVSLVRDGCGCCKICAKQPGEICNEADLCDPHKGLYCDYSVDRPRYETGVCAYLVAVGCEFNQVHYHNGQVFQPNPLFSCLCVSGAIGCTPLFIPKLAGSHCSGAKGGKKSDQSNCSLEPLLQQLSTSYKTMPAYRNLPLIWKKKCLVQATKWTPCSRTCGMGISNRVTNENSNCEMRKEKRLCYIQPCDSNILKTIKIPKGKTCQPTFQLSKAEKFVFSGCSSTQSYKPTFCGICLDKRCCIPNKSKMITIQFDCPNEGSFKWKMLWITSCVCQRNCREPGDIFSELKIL
B5: Mothers against decapentaplegic homolog 4 (Homo sapiens), Q13485 (parent)
chain: B1 chain
partner: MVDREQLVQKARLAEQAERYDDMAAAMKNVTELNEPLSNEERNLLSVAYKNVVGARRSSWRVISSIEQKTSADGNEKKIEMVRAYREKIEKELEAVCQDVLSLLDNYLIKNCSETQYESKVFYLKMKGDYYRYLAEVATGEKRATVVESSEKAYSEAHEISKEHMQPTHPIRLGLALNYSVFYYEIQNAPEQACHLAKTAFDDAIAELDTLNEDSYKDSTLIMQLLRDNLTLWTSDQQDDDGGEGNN
B6: Mothers against decapentaplegic homolog 4 (Homo sapiens), Q13485 (parent)
chain: B1 chain
partner: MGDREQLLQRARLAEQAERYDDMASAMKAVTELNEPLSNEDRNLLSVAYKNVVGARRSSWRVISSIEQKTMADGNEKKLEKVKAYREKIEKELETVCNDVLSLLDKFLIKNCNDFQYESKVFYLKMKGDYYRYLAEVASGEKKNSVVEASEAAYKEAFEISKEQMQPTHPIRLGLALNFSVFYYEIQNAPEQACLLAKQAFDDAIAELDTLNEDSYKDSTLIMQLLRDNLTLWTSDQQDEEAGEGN
B7: Mothers against decapentaplegic homolog 4 (Homo sapiens), Q13485 (parent)
chain: B1 chain
partner: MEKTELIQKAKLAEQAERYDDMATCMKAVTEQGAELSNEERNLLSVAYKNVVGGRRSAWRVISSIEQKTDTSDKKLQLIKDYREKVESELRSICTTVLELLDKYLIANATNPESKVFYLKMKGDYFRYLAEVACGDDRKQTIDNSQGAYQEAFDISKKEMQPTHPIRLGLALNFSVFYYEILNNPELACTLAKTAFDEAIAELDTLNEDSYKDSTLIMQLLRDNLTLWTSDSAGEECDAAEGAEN

Variants of: B1
Settings: with ulk1_human ULK1, O75385

Row | Variant | effect of a mutation on the interaction
1 | R361H | with no effect

Variants of: B2
Settings: with uvrag_human UVRAG

Row | Variant | effect of a mutation on the interaction
2 | D351H | with no effect

Variants of: B2
Settings: with uvrag_human UVRAG
Remark: another data set of the same source

Row | Variant | effect of a mutation on the interaction
3 | G386D | with no effect

Variants of: B2
Settings: with uvrag_human UVRAG
Remark: another data set of the same source

Row | Variant | effect of a mutation on the interaction
4 | R361C | with no effect

Variants of: B2
Settings: with uvrag_human UVRAG
Remark: another data set of the same source

Row | Variant | effect of a mutation on the interaction
5 | R361H | with no effect

Variants of: B3
Settings: with wasf3_human WASF3, Q9UPY6

Row | Variant | effect of a mutation on the interaction
6 | D351H | with no effect

Variants of: B3
Settings: with wasf3_human WASF3, Q9UPY6
Remark: another data set of the same source

Row | Variant | effect of a mutation on the interaction
7 | G386D | with no effect

Variants of: B3
Settings: with wasf3_human WASF3, Q9UPY6
Remark: another data set of the same source

Row | Variant | effect of a mutation on the interaction
8 | G386D | increasing interaction strength

Variants of: B3
Settings: with wasf3_human WASF3, Q9UPY6
Remark: another data set of the same source

Row | Variant | effect of a mutation on the interaction
9 | R361C | with no effect

Variants of: B3
Settings: with wasf3_human WASF3, Q9UPY6
Remark: another data set of the same source

Row | Variant | effect of a mutation on the interaction
10 | R361H | with no effect

Variants of: B4
Settings: with ccn6_human CCN6, O95389

Row | Variant | effect of a mutation on the interaction
11 | D351H | with no effect

Variants of: B4
Settings: with ccn6_human CCN6, O95389
Remark: another data set of the same source

Row | Variant | effect of a mutation on the interaction
12 | G386D | with no effect

Variants of: B4
Settings: with ccn6_human CCN6, O95389
Remark: another data set of the same source

Row | Variant | effect of a mutation on the interaction
13 | R361C | with no effect

Variants of: B4
Settings: with ccn6_human CCN6, O95389
Remark: another data set of the same source

Row | Variant | effect of a mutation on the interaction
14 | R361H | with no effect

Variants of: B5
Settings: with 1433g_human YWHAG

Row | Variant | effect of a mutation on the interaction
15 | D351H | with no effect

Variants of: B5
Settings: with 1433g_human YWHAG
Remark: another data set of the same source

Row | Variant | effect of a mutation on the interaction
16 | R361C | with no effect

Variants of: B6
Settings: with 1433f_human YWHAH

Row | Variant | effect of a mutation on the interaction
17 | D351H | with no effect

Variants of: B6
Settings: with 1433f_human YWHAH
Remark: another data set of the same source

Row | Variant | effect of a mutation on the interaction
18 | G386D | with no effect

Variants of: B6
Settings: with 1433f_human YWHAH
Remark: another data set of the same source

Row | Variant | effect of a mutation on the interaction
19 | R361C | with no effect

Variants of: B6
Settings: with 1433f_human YWHAH
Remark: another data set of the same source

Row | Variant | effect of a mutation on the interaction
20 | R361H | with no effect

Variants of: B7
Settings: with 1433t_human YWHAQ

Row | Variant | effect of a mutation on the interaction
21 | D351H | with no effect

Variants of: B7
Settings: with 1433t_human YWHAQ
Remark: another data set of the same source

Row | Variant | effect of a mutation on the interaction
22 | G386D | with no effect

Variants of: B7
Settings: with 1433t_human YWHAQ
Remark: another data set of the same source

Row | Variant | effect of a mutation on the interaction
23 | R361C | with no effect
